In patent publication US10363306B2, “Cytokines and neuroantigens for treatment of immune disorders” (East Carolina University, priority 2009, dated 2019):

B1: IFNβ-NAg: Fusion protein: rat IFNβ, enterokinase linker (GDDDDKG), encephalitogenic 73-87 peptide of guinea pig MBP, C-terminal 6-histidine tag (protein)
chain: IDYKQLQFRQSTSIRTCQKLLRQLNGRLNLSYRTDFKIPMEVMHPSQMEKSYTAFAIQVMLQNVFLVFRSNFSSTGWNETIVESLLDELHQQTELLEIILKEKQEERLTWVTSTTTLGLKSYYWRVQRYLKDKKYNSYAWMVVRAEVFRNFSIILRLNRNFQNGDDDDKGPQKSQRSQDENPVVHHHHHH
B2: IFNβ: Rat interferon beta cytokine with enterokinase linker and 6-histidine sequence, no neuroantigen (protein)
chain: IDYKQLQFRQSTSIRTCQKLLRQLNGRLNLSYRTDFKIPMEVMHPSQMEKSYTAFAIQVMLQNVFLVFRSNFSSTGWNETIVESLLDELHQQTELLEIILKEKQEERLTWVTSTTTLGLKSYYWRVQRYLKDKKYNSYAWMVVRAEVFRNFSIILRLNRNFQNGDDDDKGHHHHHH

Tests used:
[1] = system: MBP-specific RsL.11 T cell clone; assay: Antigen-specific proliferation of RsL.11 T cell clone with irradiated splenic APC; format: cell-based, rat
Method: (§1) FIG. 2. Structure-function analysis of the cytokine and NAg domains of IFNβ fusion proteins. (A) Expression supernatants containing designated IFNβ fusion proteins (see Table 2) were added to cultures of BN-GP T cells at designated titrations (x-axis). (B) The IFNβ-EK-NAg-6his or IFNβ-EK-6his fusion genes were inserted into the pCEP4 expression vector (Invitrogen). Inserts were verified by DNA sequencing, and the genes were expressed by transient transfection of HEK293 cells. Independently derived expression systems of IFNβ-EK-NAg-6his or IFNβ-EK-6his (3 each) were compared in the BN-GP T cell anti-proliferative assay. (C) Independently purified preparations (2 each) of each IFN-β fusion protein (IFNβ-NAg from HEK293 cells, IFNβ-NAg from baculovirus, and IFN-β from HEK293 cells) were added at designated concentrations to assess anti-proliferative activity. Two independently purified preparations of the same fusion protein were tested to verify the reliability of activity for each type of protein. The x-axis was based on the exponent of the molar concentration. For example, a concentration of 100 nM was represented as Log [10^−7]=Log10) (10^−7M)=−7 and was plotted by the exponent of −7. For these experiments (A-C), BN-GP T cells were cultured in IL-2. (D) The MBP-specific RsL.11 T cell clone and irradiated splenic APC were cultured with designated concentrations of purified IFNβ-NAg or GPMBP in the presence or absence of the OX6 anti-MHC-II mAb. (E) Five preparations of purified IFNβ-NAg and six preparations of purified IFN-β were tested for antigenic activity in cultures of RsL.11 T cells and irradiated splenic APC.
(§2) The RsL.11 MBP-specific clone was a stable, IL-2 dependent line derived from Lewis rats sensitized with rat MBP in CFA (Mannie, M. D., and M. S. Norris. 2001. MHC class-II-restricted antigen presentation by myelin basic protein-specific CD4+ T cells causes prolonged desensitization and outgrowth of CD4-responders. Cell Immunol 212:51-62). The RsL.11T clone was a transformed variant of the RsL.11 clone. […]

BN-GP T cells = assay: IFNβ anti-proliferative activity in IL-2 stimulated cultures of BN-GP T cells; format: cell-based, rat; conditions: for Biological activity of IFNβ in expression supernatants: transient transfection of HEK293 cells
Method: FIG. 1. The IFNβ-NAg his-tagged fusion protein was biologically active and was purified on nickel resins. (A) To assess whether IFNβ-NAg induced class I MHC expression, thymocytes (5×10^6/ml in complete RPMI) were cultured with or without IFNβ-NAg for 2 days and then were stained with B5 (anti-MHC-I), OX18 (anti-MHC-I), R73 (anti-TCRβ), or OX81 (anti-IL4; isotype control) and were analyzed by flow cytometry. (B) To assess IFNβ-mediated anti-proliferative activity, supernatants from two independently derived IFNβ-NAg expression systems as well as supernatants from several control expression systems were added at designated titrations (x-axis) to IL-2 stimulated cultures of BN-GP T cells. (C) To assess the specificity of anti-proliferative activity, baculovirus supernatants containing IFNβ-NAg were added at designated titrations to cultures of rat (R1T, BN-GP, RsL.11T, RsL.11, or Conal.8D9) or mouse (CTLL) T cells. Proliferative assays (B & C) were pulsed with [^3H]thymidine on the second day of a 3-day culture. (D) Shown is a representative SDS-PAGE analysis of purified IFNβ-NAg.
as §1, §2

| Molecule | antigenic potency relative to GPMBP ([1]; at low concentrations, concentration eliciting half-maximal response) | peak proliferative response ([1]; compared with GPMBP) | Biological activity of IFNβ in expression supernatants (BN-GP T cells) | cytokine activity relative to HEK293-derived protein (BN-GP T cells; protein purified from baculovirus expression supernatants) | stimulatory activity (antigen-specific proliferation) ([1]; independently purified preparations, RsL.11 T cells and irradiated splenic APC) |
| --- | --- | --- | --- | --- | --- |
| B1 | more potent than intact guinea pig myelin basic protein | substantially less than that stimulated by GPMBP | Potent activity | less active | – |
| B2 | – | – | Potent activity | – | devoid of stimulatory activity |
